Test results: PMC6713349, “Structural analysis of the recognition of the -35 promoter element by SigW from Bacillus subtilis”

Target: T1, SigW sigma4 domain (σW4) (Bacillus subtilis 168, UniProt Q45585 126-187)
T1 sequence: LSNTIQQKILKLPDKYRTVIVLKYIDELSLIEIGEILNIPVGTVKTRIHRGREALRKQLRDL
Assay: X-ray crystallography (3.1 Å); 1:1 complex, DNA mixed at 1.1:1; printed Kd 1.47e-8 M is computed from PISA ΔG, not measured, so not taken; Complex dialysed in 20 mM HEPES pH 7.5, 0.2 M NaCl, 5% glycerol; crystals from PEG1500 and isopropanol; temperature not stated
Details: protein: recombinant; tags: N-terminal 6xHis, removed with TEV protease; 5' overhang 1 nt at each end, 11 bp

B1: -35W (SigW -35 promoter element) (dsDNA)
DNA 1: ATTGAAACCTTT
DNA 2: AAAAGGTTTCAA
- binding result: binds
